Measurements as given in patent US20060093553A1, “Cd26-based therapies for cancers and immune disease” (priority 2002, published 2006).

Legend:
Assay type in all cases: cell-based, Human
[1] = system: PBMC; assay: TT-induced proliferation of PBMC, time-course ([3H]TdR incorporation); settings: DPPIV-deficient mutant sCD26 in PBMC time-course
Description: Human PBMC, collected from healthy adult volunteers who were immunized with TT within two years before donation, were isolated by centrifugation on Ficoll/Paque (Amersham Pharmacia Biotech, Piscataway, N.J.). PBMC were directly used for the time-course studies. For the reconstitution studies, PBMC were further purified into T cell fractions and APC fractions. To obtain a highly purified T cell population, PBMC were separated into an E rosette-positive (E^+) population and were used as resting T cells as determined by flow cytometric analysis (FACSCalibur; Nippon BD Biosciences, Tokyo, Japan) using an FITC-labeled anti-CD3 mAb (BD PharMingen, San Diego, Calif.) with purity being >95%. To obtain APC, an E rosette-negative (E^−) population was adhered to plastic plates for 4 h at 37° C., and adherent cells were used as APC. Monocytes were either purified by a flow cytometer on the basis of PE-labeled anti-CD14 mAb (BD PharMingen)-oriented parameter, or by negative selection through the use of immunomagnetic beads coated with an anti-CD3, CD7, CD19, CD45RA, CD56, and IgE mAb Qailtenyi Biotec, Auburn, Calif.) with purity being >95%. […]
T-cell proliferation induced by APC was measured by [^3H]TdR (ICN Radiochemicals, Irvine, Calif.) uptake. […]

[2] = system: PBMC subpopulations (CD3, CD14, CD19, CD56); assay: sCD26-OG incorporation into PBMC subpopulations (flow cytometry); settings: 24 h, presence or absence of TT; FIG. 9
Method: Assessment of the PBMC population that takes up sCD26-OG was performed with PE-conjugated anti-CD3, anti-CD14, anti-CD19, and anti-CD56 mAbs (10 μg/ml). For these experiments, 1×10^6 PBMC/well were incubated in standard medium containing sCD26-OG for 24 h with or without preincubation with TT. Cells were then washed twice in ice-cold PBS, followed by incubation for 2 min in acidic PBS (pH 3.0) to strip any sCD26-OG attached to the cell surface. Cells were subsequently washed in ice-cold PBS and were incubated with mouse Ig isotypes (1 μg/ml) to block nonspecific binding; this was followed by reaction with PE-conjugated mabs.
(§1) Flow cytometric analysis of 10,000 viable cells was conducted on FACSCalibur (BD Biosciences, Mountain View, Calif.). Each experiment was repeated at least three times, and the results were provided in the form of a histogram of a representative experiment, or increased mean percent±SE fluorescent intensity compared with control or untreated cells.

[3] = system: monocytes; assay: Confocal laser microscopy of sCD26 uptake
Method: For fluorescent microscopy studies of uptake of sCD26 by monocytes; purified monocytes were incubated with sCD26-OG (1 μg/ml) with or without preincubation with. TT (0.5 μg/ml). Cells were then washed in ice-cold PBS twice and were incubated in acidic PBS (pH 3.0) to strip any sCD26-OG attached to the cell surface. The cells were then attached to microslide glass (Matsunami Glass, Tokyo, Japan) and fixed with 3% paraformaldehyde in PBS for 15 min at room temperature. Cells were blocked with mouse Ig isotypes (1 μg/ml) for 30 min at 4° C., followed by incubation with biotinylated anti-CD14 (10 μg/ml) for 30 min at 4° C., then washed with ice-cold PBS twice and incubated with streptavidin-conjugated Texas red conjugate (1/200; Beckman Coulter) for 30 min at 4° C. In studies of sCD26 uptake via M6P/IGF-IIR on monocytes, purified monocytes were incubated with or without TT for 16 h, and sCD26-OG and M6P/IGF-IIR-red were added to the culture well after being blocked with mouse Ig isotypes (1 μg/ml) for 30 min at 4° C. Cells were then incubated for 30 min at 4° C. For detection of cell surface colocalization, cells were washed in ice-cold PBS twice and were attached to microslide glass, followed by fixation with 3% paraformaldehyde in PBS for 15 min at room temperature. […]

[4] = system: monocytes and purified T cells; assay: Reconstitution/fixation study: T cell proliferation with preincubated monocytes ([3H]TdR); settings: TT-pulsed monocytes fixed with 0.05% glutaraldehyde before or after sCD26; FIGS. 12A, 12B
Method: All cells were preincubated in the standard medium for 24 h to minimize the risk of potential interference from sCD26 present in human serum (Tanaka et al., 1993). In these studies, cells were incubated in 96-well plates (200 μl/well; Falcon, Franklin Lakes, N.J.). For the time-course study, 1.0×10^5 PBMC were incubated with 0.5 μg/ml TT for 16 h. Then, 0.5 μg/ml sCD26 was added to the well and was incubated for 0, 6, 12, 24, 48, 72, and 96 h. The day when the first sCD26 was added to the culture well was defined as day 0 of culture. All assays in proliferation experiments were performed on day 7 of culture after cells were incubated at 37° C. in a 5% CO2 humidified atmosphere. For the reconstitution study, 0.5×10^6 of monocytes were preincubated with TT, at a concentration of 0.5 μg/ml with different concentrations of sCD26 for 24 h. Monocytes were washed with PBS, and then 1×10^4/well of preincubated monocytes were subjected to the assay with 1×10^5/well of purified T cells from the same donor as the prepared monocytes. […]
T-cell proliferation induced by APC was measured by [^3H]TdR (ICN Radiochemicals, Irvine, Calif.) uptake. Seven-day-incubated cells were pulsed with 1 μCi/well of [^3H]TdR 8 h before harvesting onto a glass-fiber filter (Wallac, Turk, Finland), and the incorporated radioactivity was quantified by a liquid scintillation counter (Wallac).

[5] = system: CD86 expression on monocytes; assay: Surface expression on monocytes (flow cytometry); settings: after TT and sCD26 stimulation; FIG. 13
Method: In studies assessing the expression of CD80, CD86, and HLA-DR on purified monocytes (0.5×10^6 monocytes/well), monocytes were preincubated with or without TT (0.5 μg/ml) for 16 h. Following incubation with sCD26 (0.5 μg/ml) for 24 h, FITC-conjugated CD80, CD86, and HLA-DR mAbs (10 μg/ml) were used with PE-conjugated anti-CD14 (10 μg/ml) to gate exclusively on the monocyte population. In experiments assessing the effect of M6P on cellular uptake of sCD26, purified monocytes (0.5×10^6 monocytes/well) were incubated with the appropriate concentration of M6P in the presence or absence of sCD26-OG for 24 h in standard medium. Cells were then washed twice in ice-cold PBS, followed by incubation for 2 min in acidic PBS (pH 3.0) to strip any sCD26-OG attached to the cell surface. Cells were washed in ice-cold PBS and were incubated with mouse Ig isotypes (1 μg/ml) to block nonspecific binding; this was followed by reaction with PE-conjugated anti-CD14 (10 μg/ml) to gate exclusively on monocyte population.
as §1

[6] = system: CD86 mRNA in monocytes; assay: Relative quantitative RT-PCR assay; settings: monocytes with TT 16 h then sCD26 0.5 μg/ml 24 h

B1: sCD26/DPPIV^−: mutant sCD26 without DPPIV activity, Ser630 replaced by Ala at the active site (protein)
chain: MKGLLGAAALVTIITVPVVLLNKGTDDATADSRKTYTLTDYLKNTYRLKLYSLRWISDHEYLYKQENNILVFNAEYGNSSVFLENSTFDEFGHSINDYSISPDGQFILLEYNYVKQWRHSYTASYDIYDLNKRQLITEERIPNNTQWVTWSPVGHKLAYVWNNDIYVKIEPNLPSYRITWTGKEDIIYNGITDWVYEEEVFSAYSALWWSPNGTFLAYAQFNDTEVPLIEYSFYSDESLQYPKTVRVPYPKAGAVNPTVKFFVVNTDSLSSVTNATSIQITAPASMLIGDHYLCDVTWATQERISLQWLRRIQNYSVMDICDYDESSGRWNCLVARQHIEMSTTGWVGRFRPSEPHFTLDGNSFYKIISNEEGYRHICYFQIDKKDCTFITKGTWEVIGIEALTSDYLYYISNEYKGMPGGRNLYKIQLSDYTKVTCLSCELNPERCQYYSVSFSKEAKYYQLRCSGPGLPLYTLHSSVNDKGLRVLEDNSALDKMLQNVQMPSKKLDFIILNETKFWYQMILPPHFDKSKKYPLLLDVYAGPCSQKADTVFRLNWATYLASTENIIVASFDGRGSGYQGDKIMHAINRRLGTFEVEDQIEAARQFSKMGFVDNKRIAIWGWAYGGYVTSMVLGSGSGVFKCGIAVAPVSRWEYYDSVYTERYMGLPTPEDNLDHYRNSTVMSRAENFKQVEYLLIHGTADDNVHFQQSAQISKALVDVGVDFQAMWYTDEDHGIASSTAHQHIYTHMSHFIKQCFSLP
For B1, the “enhancing effect of TT-induced T cell proliferation” value [1] was “not observed”, the “PBMC population that takes up sCD26” value [2] was “preferentially taken up by CD14-positive monocytes” and the “intracellular detection of sCD26 in monocytes” value ([3]; 36 h after incubation of monocytes with sCD26) was “no longer detectable intracellularly”. For the same molecule, the “uptake by monocytes (confocal microscopy)” value ([3]; sCD26-OG 1 μg/ml) was “clearly taken up by monocytes”, the “enhanced T cell proliferation, fixation study” value [4] was “seen only when the monocytes were incubated with sCD26/DPPIV^+ before fixation” and the “CD86 expression on monocytes” value [5] was “did not affect CD86 expression”. For the same molecule, the “CD86 mRNA levels (RT-PCR)” value [6] was “did not demonstrate enhanced CD86 mRNA levels” and the “CD86 mRNA levels (RT-PCR)” value ([6]; listed as sCD26/DPPIV^+) was “increased mRNA levels”.
